The experiment concerns the target T1, sLgBiT-Lc-GPR25 (without coexpression of TPST1 and TPST2) (Latimeria chalumnae (coelacanth), UniProt H3AQL3 1-365).
T1 sequence (looked up): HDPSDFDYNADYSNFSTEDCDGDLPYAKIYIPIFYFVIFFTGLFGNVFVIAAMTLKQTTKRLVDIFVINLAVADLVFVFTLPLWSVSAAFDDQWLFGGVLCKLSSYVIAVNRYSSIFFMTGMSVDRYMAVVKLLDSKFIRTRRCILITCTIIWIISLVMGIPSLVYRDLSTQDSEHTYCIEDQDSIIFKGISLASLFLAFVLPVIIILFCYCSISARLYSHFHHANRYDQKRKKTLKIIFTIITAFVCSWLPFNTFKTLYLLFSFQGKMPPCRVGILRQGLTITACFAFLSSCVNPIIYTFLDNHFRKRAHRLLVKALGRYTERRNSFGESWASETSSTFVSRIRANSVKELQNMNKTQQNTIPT
As to the kind of experiment: split reporter.

B1: 6×His-Hs-CXCL17 (ligand, human, UniProt Q6UXB2 22-119, looked up)
chain: SSLNPGVARGHRDRGQASRRWLQEGGQECECKDWFLRAPRRKFMTVSGLPKKQCPCDHFKGNVKKTRHQRHHRKPNKHSRACQQFLKQCQLRSFALPL
For B1, the half-inhibitory concentration (IC50) – broadly, the concentration that gives 50% inhibition – is approximately 400 nM.

(Values after article doi:10.1101/2025.09.16.676457 (bioRxiv, 2025).)
